Results from US20040138118.
Residue numbers refer to the chain shown, from its start.

B1: mammalian Tolloid-like-2 (mTLL-2) (protein)
chain: ATTSRTERIWPGGVIPYVIGGNFTGSQRAIFKQAMRHWEKHTCVTFIERTDEESFIVFSYRTCGCCSYVGRRGGGPQAISIGKNCDKFGIVAHELGHVVGFWHEHTRPDRDQHVTIIRENIQPGQEYNFLKMEAGEVSSLGETYDFDSIMHYARNTFSRGVFLDTILPRQDDNGVRPTIGQRVRLSQGDIAQARKLYKCPACGETLQDTTGNFSAPGFPNGYPSYSHCVWRISVTPGEKIVLNFTSMDLFKSRLCWYDYVEVRDGYWRKAPLLGRFCGDKIPEPLVSTDSRLWVEFRSSSNILGKGFFAAYEATCGGDMNKDAGQIQSPNYPDDYRPSKECVWRITVSEGFHVGLTFQAFEIERHDSCAYDYLEVRDGPTEESALIGHFCGYEKPEDVKSSSNRLWMKFVSDGSINKAGFAANFFKEVDECSWPDHGGCEHRCVNTLGSYKCACDPGYELAADKKMCEVACGGFITKLNGTITSPGWPKEYPTNKNCVWQVVAPAQYRISLQFEVFELEGNDVCKYDFVEVRSGLSPDAKLHGRFCGSETPEVITSQSNNMRVEFKSDNTVSKRGFRAHFFSDKDECAKDNGGCQHECVNTFGSYLCRCRNGYWLHENGHDCKEAGCAHKISSVEGTLASPNWPDKYPSRRECTWNISSTAGHRVKLTFNEFEIEQHQECAYDHLEMYDGPDSLAPILGRFCGSKKPDPTVASGSSMFLRFYSDASVQRKGFQAVHSTECGGRLKAEVQTKELYSHAQFGDNNYPSEARCDWVIVAEDGYGVELTFRTFEVEEEADCGYDYMEAYDGYDSSAPRLGRFCGSGPLEEIYSAGDSLMIRFRTDDTINKKGFHARYTSTKFQDALHMKK
B2: bone morphogenic protein-1 (BMP-1) (protein)
chain: AATSRPERVWPDGVIPFVIGGNFTGSQRAVFRQAMRHWEKHTCVTFLERTDEDSYIVFTYRPCGCCSYVGRRGGGPQAISIGKNCDKFGIVVHELGHVVGFWHEHTRPDRDRHVSIVRENIQPGQEYNFLKMEPQEVESLGETYDFDSIMHYARNTFSRGIFLDTIVPKYEVNGVKPPIGQRTRLSKGDIAQARKLYKCPACGETLQDSTGNFSSPEYPNGYSAHMHCVWRISVTPGEKIILNFTSLDLYRSRLCWYDYVEVRDGFWRKAPLRGRFCGSKLPEPIVSTDSRLWVEFRSSSNWVGKGFFAVYEAICGGDVKKDYGHIQSPNYPDDYRPSKVCIWRIQVSEGFHVGLTFQSFEIERHDSCAYDYLEVRDGHSESSTLIGRYCGYEKPDDIKSTSSRLWLKFVSDGSINKAGFAVNFFKEVDECSRPNRGGCEQRCLNTLGSYKCSCDPGYELAPDKRRCEAACGGFLTKLNGSITSPGWPKEYPPNKNCIWQLVAPTQYRISLQFDFFETEGNDVCKYDFVEVRSGLTADSKLHGKFCGSEKPEVITSQYNNMRVEFKSDNTVSKKGFKAHFFSEKRPALQPPRGRPHQLKFRVQKRNRTPQ
B3: mammalian Tolloid-like-1 (mTLL-1) (protein)
chain: AATSRTERIWPGGVIPYVIGGNFTGSQRAMFKQAMRHWEKHTCVTFIERSDEESYIVFTYRPCGCCSYVGRRGNGPQAISIGKNCDKFGIVVHELGHVIGFWHEHTRPDRDNHVTIIRENIQPGQEYNFLKMEPGEVNSLGERYDFDSIMHYARNTFSRGMFLDTILPSRDDNGIRPAIGQRTRLSKGDIAQARKLYRCPACGETLQESNGNLSSPGFPNGYPSYTHCIWRVSVTPGEKIVLNFTTMDLYKSSLCWYDYIEVRDGYWRKSPLLGRFCGDKLPEVLTSTDSRMWIEFRSSSNWVGKGFAAVYEAICGGEIRKNEGQIQSPNYPDDYRPMKECVWKITVSESYHVGLTFQSFEIERHDNCAYDYLEVRDGTSENSPLIGRFCGYDKPEDIRSTSNTLWMKFVSDGTVNKAGFAANFFKEEDECAKPDRGGCEQRCLNTLGSYQCACEPGYELGPDRRSCEAACGGLLTKLNGTITTPGWPKEYPPNKNCVWQVVAPTQYRISVKFEFFELEGNEVCKYDYVEIWSGLSSESKLHGKFCGAEVPEVITSQFNNMRIEFKSDNTVSKKGFKAHFFSDKDECSKDNGGCQHECVNTMGSYMCQCRNGFVLHDNKHDCKEAECEQKIHSPSGLITSPNWPDKYPSRKECTWEISATPGHRIKLAFSEFEIEQHQECAYDHLEVFDGETEKSPILGRLCGNKIPDPLVATGNKMFVRFVSDASVQRKGFQATHSTECGGRLKAESKPRDLYSHAQFGDNNYPGQVDCEWLLVSERGSRLELSFQTFEVEEEADCGYDYVELFDGLDSTAVGLGRFCGSGPPEEIYSIGDSVLIHFHTDDTINKKGFHIRYKSIRYPDTTHTKK

Key:
[1] = target: T1, 20-mer D to A mutant peptide (SEQ ID NO:20)
T1 chain: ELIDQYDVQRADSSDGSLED

[2] = target: T2, 20-mer R to Q mutant peptide (SEQ ID NO:19)
T2 chain: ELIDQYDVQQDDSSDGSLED

[3] = target: T3, 20-mer wild type myostatin pro peptide peptide (SEQ ID NO:18)
T3 chain: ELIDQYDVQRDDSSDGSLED

[4] = target: T4, 30-mer D to A mutant peptide (SEQ ID NO:17)
T4 chain: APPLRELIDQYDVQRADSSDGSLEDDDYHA

[5] = target: T5, 30-mer R to Q mutant peptide (SEQ ID NO:16)
T5 chain: T4 chain with R15Q, A16D

[6] = target: T6, 30-mer wild type myostatin pro peptide peptide (SEQ ID NO:15)
T6 chain: T4 chain with A16D

[7] = target: T7, 40-mer D to A mutant peptide (SEQ ID NO:14)
T7 chain: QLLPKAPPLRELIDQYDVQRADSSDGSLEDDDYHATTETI

[8] = target: T8, 40-mer R to Q mutant peptide (SEQ ID NO:13)
T8 chain: T7 chain with R20Q, A21D

[9] = target: T9, 40-mer wild type myostatin pro peptide peptide (SEQ ID NO:12)
T9 chain: T7 chain with A21D

[10] = target: D76A mutant myostatin pro peptide
Chain of D76A mutant myostatin pro peptide (chain, as listed by the source D76A): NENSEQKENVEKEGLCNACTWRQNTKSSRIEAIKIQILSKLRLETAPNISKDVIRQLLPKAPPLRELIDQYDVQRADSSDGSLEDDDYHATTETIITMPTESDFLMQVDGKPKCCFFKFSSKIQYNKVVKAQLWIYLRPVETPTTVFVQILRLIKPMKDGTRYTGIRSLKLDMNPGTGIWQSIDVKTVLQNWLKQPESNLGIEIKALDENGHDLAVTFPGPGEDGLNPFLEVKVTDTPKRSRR

[11] = target: myostatin pro peptide (wild type)

Protein	peptide cleavage, HPLC and mass spectrometry [1]	peptide cleavage, HPLC and mass spectrometry [2]	peptide cleavage, HPLC and mass spectrometry [3]	peptide cleavage, HPLC and mass spectrometry [4]	peptide cleavage, HPLC and mass spectrometry [5]	peptide cleavage, HPLC and mass spectrometry [6]	peptide cleavage, HPLC and mass spectrometry [7]	peptide cleavage, HPLC and mass spectrometry [8]	peptide cleavage, HPLC and mass spectrometry [9]	proteolytic cleavage of the mutant pro peptide in the latent complex, western blot (FIGS. 3D and E) [10]	partial proteolytic cleavage of the pro peptide in the latent complex, western blot (FIG. 3E) [11]	proteolytic cleavage of free pro peptide [11]	proteolytic cleavage, SDS-PAGE and western blot with anti-pro peptide antiserum [11]	proteolytic cleavage of the pro peptide in the latent complex, western blot (FIG. 3D) [11]
B1	the peptides containing the D→A mutation at the P1′ position were not cleaved	The 40-mer, 30-mer, and 20-mer wild type and R→Q mutant peptides were cleaved by conditioned media containing TLL-2	The 40-mer, 30-mer, and 20-mer wild type and R→Q mutant peptides were cleaved by conditioned media containing TLL-2	the peptides containing the D→A mutation at the P1′ position were not cleaved	The 40-mer, 30-mer, and 20-mer wild type and R→Q mutant peptides were cleaved by conditioned media containing TLL-2	The 40-mer, 30-mer, and 20-mer wild type and R→Q mutant peptides were cleaved by conditioned media containing TLL-2	the peptides containing the D→A mutation at the P1′ position were not cleaved	The 40-mer, 30-mer, and 20-mer wild type and R→Q mutant peptides were cleaved by conditioned media containing TLL-2	The 40-mer, 30-mer, and 20-mer wild type and R→Q mutant peptides were cleaved by conditioned media containing TLL-2	completely resistant to proteolysis by each of the four proteinases	BMP-1, mTLL-1, and mTLL-2, were approximately equally effective in cleaving the pro peptide	All four of these proteinases also cleaved pro peptide that had been purified away from the C-terminal dimer	A discrete proteolytic cleavage product of the pro peptide was detected in each reaction containing one of the four proteases	
B2										completely resistant to proteolysis by each of the four proteinases	BMP-1, mTLL-1, and mTLL-2, were approximately equally effective in cleaving the pro peptide	All four of these proteinases also cleaved pro peptide that had been purified away from the C-terminal dimer	A discrete proteolytic cleavage product of the pro peptide was detected in each reaction containing one of the four proteases	incubation of the purified latent complex with purified BMP-1 resulted in complete cleavage of the pro peptide to generate a single product
B3										completely resistant to proteolysis by each of the four proteinases	BMP-1, mTLL-1, and mTLL-2, were approximately equally effective in cleaving the pro peptide	All four of these proteinases also cleaved pro peptide that had been purified away from the C-terminal dimer	A discrete proteolytic cleavage product of the pro peptide was detected in each reaction containing one of the four proteases	
